Consider 22 molecules from patent publication US20150147274A1 (CANCER RESEARCH TECHNOLOGY, published 2015).

Numbering of substitutions follows the chain as printed.

In experiment [1] the target is human MET (c-Met) on cells (SKOV-3, BxPC3) (human) (UniProt P08581). Description: cell-based or functional assay.
Experiment [2] addresses MET928 (cMET protein derived from construct 25-928) (human) (UniProt P08581). Put plainly: Biacore SPR, MET928-coated surface, 1:1 kinetic analysis. Background: In SPR one partner is held on a chip, and binding of the other changes the refractive index at the surface.
Experiment [3] has as its target T1, MET928 (cMET protein derived from construct 25-928) (human, UniProt P08581 25-928).
T1 construct: MET ectodomain, residues 1-24 are the leader; produced in Lec 8 cells; background text says the ectodomain is furin-cleaved into alpha (25-307) and beta chains; biotinylated form used in selections; also called MET928 extracellular domain; Met extracellular domain
Put plainly: Biacore SPR, MET928-coated surface. The source says:
Since scFv can multimerise, possibly complicating analysis, we also analysed the biological activity of monomeric 7A2 scFv. 8×His-tagged 7A2 scFv (Table 14) was expressed in P. pastoris induced with Methanol over 3 days. Conditioned media was concentrated using a Sartorius Slice Disposable (10 kD nominal molecular weight cut-off) and the scFv purified on a HisTrap column (GE Life Sciences). Monomeric 7A2 scFv (FIG. 11) was isolated by size exclusion using a Superdex 200 16/60 prep grade column (GE Life Sciences).

Experiment [4] addresses T2, human MET (c-Met) on cells (SKOV-3, BxPC3) (human, UniProt P08581 25-1390). Description: cell-based or functional assay.
The target in experiment [5] is T1, MET928 (cMET protein derived from …). Description: Biacore SPR, MET-928 on chip, scFv format. The protocol:
(§1) The binding characteristics of 7A2 and its derivatives were measured using a GE Healthcare Biacore biosensor.

Experiment [6] has as its target T2, human MET (c-Met) on cells (SKOV-3, …). Description: cell-based or functional assay. This is another data set of the same source.
The target in experiment [7] is T1, MET928 (cMET protein derived from …). Description: Biacore SPR, MET-928 on chip, Fab format. Here is the method: as §1

Chain of MET928 (cMET protein derived from construct 25-928) (human) (P08581 25-928): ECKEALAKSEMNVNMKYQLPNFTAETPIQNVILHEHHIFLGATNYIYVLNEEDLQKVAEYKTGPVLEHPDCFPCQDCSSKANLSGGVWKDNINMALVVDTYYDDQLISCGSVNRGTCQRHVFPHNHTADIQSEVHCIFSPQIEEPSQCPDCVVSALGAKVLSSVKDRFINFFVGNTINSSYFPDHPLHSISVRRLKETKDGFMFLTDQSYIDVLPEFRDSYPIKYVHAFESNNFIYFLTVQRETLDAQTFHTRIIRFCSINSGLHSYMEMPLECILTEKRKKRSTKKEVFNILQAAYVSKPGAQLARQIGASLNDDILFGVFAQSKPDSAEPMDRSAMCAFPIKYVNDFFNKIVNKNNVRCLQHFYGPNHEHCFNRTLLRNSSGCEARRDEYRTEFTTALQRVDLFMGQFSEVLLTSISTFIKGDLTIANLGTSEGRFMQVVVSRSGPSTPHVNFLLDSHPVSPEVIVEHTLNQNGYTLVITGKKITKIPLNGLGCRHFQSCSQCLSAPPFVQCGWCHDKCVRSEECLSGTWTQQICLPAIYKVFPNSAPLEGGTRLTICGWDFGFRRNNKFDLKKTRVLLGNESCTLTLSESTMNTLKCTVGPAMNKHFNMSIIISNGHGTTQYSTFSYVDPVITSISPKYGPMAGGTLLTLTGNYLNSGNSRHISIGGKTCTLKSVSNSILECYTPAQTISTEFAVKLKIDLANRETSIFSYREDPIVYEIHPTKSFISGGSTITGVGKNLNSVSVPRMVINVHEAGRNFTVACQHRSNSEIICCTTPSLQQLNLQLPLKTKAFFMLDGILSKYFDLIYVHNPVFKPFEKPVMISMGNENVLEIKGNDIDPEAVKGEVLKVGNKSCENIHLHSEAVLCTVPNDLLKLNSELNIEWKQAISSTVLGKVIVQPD
T1 sequence (P08581 25-928): as above
Chain of human MET (c-Met) on cells (SKOV-3, BxPC3) (human) (P08581 25-1390): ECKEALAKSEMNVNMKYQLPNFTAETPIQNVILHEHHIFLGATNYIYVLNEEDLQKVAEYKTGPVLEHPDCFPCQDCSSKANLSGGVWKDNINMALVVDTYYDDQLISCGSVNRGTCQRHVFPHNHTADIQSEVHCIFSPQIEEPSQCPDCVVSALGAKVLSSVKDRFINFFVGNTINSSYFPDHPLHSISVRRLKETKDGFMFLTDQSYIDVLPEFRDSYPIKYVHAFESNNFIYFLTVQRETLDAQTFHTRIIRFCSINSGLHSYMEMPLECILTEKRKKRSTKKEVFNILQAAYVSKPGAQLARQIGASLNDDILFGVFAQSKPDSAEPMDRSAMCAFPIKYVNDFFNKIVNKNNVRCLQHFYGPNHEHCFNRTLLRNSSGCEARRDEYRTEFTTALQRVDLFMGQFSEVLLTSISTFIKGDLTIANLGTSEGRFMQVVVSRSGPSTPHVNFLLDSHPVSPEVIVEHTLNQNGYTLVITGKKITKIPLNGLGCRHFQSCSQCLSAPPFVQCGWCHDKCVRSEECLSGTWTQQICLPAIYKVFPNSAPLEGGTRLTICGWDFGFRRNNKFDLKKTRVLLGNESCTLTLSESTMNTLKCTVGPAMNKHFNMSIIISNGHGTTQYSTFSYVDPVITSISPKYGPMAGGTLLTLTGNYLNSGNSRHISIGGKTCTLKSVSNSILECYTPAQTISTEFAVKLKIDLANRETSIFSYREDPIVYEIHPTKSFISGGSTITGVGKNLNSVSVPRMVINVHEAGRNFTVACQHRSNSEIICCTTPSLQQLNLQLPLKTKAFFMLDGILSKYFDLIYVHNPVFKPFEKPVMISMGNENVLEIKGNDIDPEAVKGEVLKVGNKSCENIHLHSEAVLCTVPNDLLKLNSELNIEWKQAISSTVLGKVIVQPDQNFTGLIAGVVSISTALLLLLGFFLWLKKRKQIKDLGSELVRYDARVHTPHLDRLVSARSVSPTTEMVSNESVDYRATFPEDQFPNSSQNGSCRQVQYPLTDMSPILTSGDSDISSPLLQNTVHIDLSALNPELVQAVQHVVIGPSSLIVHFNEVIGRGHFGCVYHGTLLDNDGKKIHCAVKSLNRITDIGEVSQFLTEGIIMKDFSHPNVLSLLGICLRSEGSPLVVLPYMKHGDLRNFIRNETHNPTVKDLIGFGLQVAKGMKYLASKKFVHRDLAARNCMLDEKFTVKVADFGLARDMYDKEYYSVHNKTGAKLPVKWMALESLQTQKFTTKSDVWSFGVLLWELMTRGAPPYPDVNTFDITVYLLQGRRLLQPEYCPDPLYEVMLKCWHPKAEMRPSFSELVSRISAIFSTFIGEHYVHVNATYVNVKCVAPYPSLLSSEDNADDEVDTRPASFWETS
T2 sequence (P08581 25-1390): as above

With 5D5 scFv, in experiment [1], the IC50 (nM), inhibition of HGF/SF-induced migration of SKOV-3 cells, Assay 1 amounted to 116 nM; the IC50 (nM), inhibition of HGF/SF-induced migration of SKOV-3 cells, Assay 2 was 83.6 nM; the IC50 (nM), inhibition of HGF/SF-induced migration of SKOV-3 cells, Mean turned out to be 99.6 nM.

As to 5D5 Fab (His-tagged), in experiment [1], the Fab concentration (nanomolar) giving 50% inhibition of HGF/SF-induced SKOV-3 migration, MEAN is 101 nM and the Fab concentration (nanomolar) giving 50% inhibition of HGF/SF-induced SKOV-3 migration, MEDIAN stood at 91 nM. In experiment [2], this molecule had a dissociation constant Kd of 6.9 nM, an off-rate constant (koff) of 0.00081 s⁻¹ and a kon of 120000 M⁻¹ s⁻¹.

B1: monomeric 7A2 scFv (8xHis-tagged, expressed in P. pastoris) (scFv)
scFv: EAEAQMQLVQSGAEVKKPGAPVKVSCKVSGYTFTDYYMHWVQQAPGKGLEWMGLVDPEDGETIYAEKFQGRVTITADTSTDTAYMELSSLRSEDTAVYYCATDATTPYYGMDVWGQGTLVTVSSLEGGGGSGGGGSGGGASDIQMTQSPSSLSASVGDRVTITCQASQDISNYLNWYQQKPGRAPKVLIYDASNLETGVPSRFSGSGSGTEFTLTISNLRPDDFATYYCQQGDSFPLTFGGGTKVEIKRPRHHHHHHHH
notes: Monomer isolated by size exclusion chromatography
In experiment [3], B1 gave a dissociation constant (Kd) of 3.62 nM, a koff of 0.00212 s⁻¹ and an association rate constant (kon) of 586000 M⁻¹ s⁻¹.

B2: 7A2 scFv (expressed in E. coli, 6xHis/tri-Flag tags) (scFv)
scFv: QMQLVQSGAEVKKPGAPVKVSCKVSGYTFTDYYMHWVQQAPGKGLEWMGLVDPEDGETIYAEKFQGRVTITADTSTDTAYMELSSLRSEDTAVYYCATDATTPYYGMDVWGQGTLVTVSSLEGGGGSGGGGSGGGASDIQMTQSPSSLSASVGDRVTITCQASQDISNYLNWYQQKPGRAPKVLIYDASNLETGVPSRFSGSGSGTEFTLTISNLRPDDFATYYCQQGDSFPLTFGGGTKVEIK
notes: also called 084-G02; antibody 7A2; not shown: 6xHis/tri-FLAG tags of pSANG10-3F
For the molecule B2, in experiment [4], the “IC50 (nM), inhibition of HGF/SF-induced migration of SKOV-3 cells, Assay 1” value worked out at 2.1 nM; the “IC50 (nM), inhibition of HGF/SF-induced migration of SKOV-3 cells, Assay 2” value came to 2.5 nM; the “IC50 (nM), inhibition of HGF/SF-induced migration of SKOV-3 cells, Mean” value was 2.3 nM. Moreover, in experiment [5], binding was characterised by a dissociation constant (Kd) of 12.3 nM, the dissociation rate constant (koff) was 0.646 s⁻¹ and the kon came to 5.25e+07 M⁻¹ s⁻¹.

B3: 112_G01 scFv (6xHis/tri-Flag tags) (scFv)
scFv: B2 scFv with Y105W, D108W, V109H
notes: not shown: 6xHis/tri-FLAG tags
For B3, in experiment [5], the Kd worked out at 0.786 nM, the koff came to 0.00238 s⁻¹ and the on-rate (kon) was determined as 3.03e+06 M⁻¹ s⁻¹.

B4: 107_A07 scFv (6xHis/tri-Flag tags) (scFv)
scFv: B2 scFv with Y105W, D108M, V109W
notes: 7A2 derivative, only VH CDR3 changed; not shown: 6xHis/tri-FLAG tags of pSANG10-3F
In the case of B4, in experiment [5], binding was characterised by a dissociation constant (Kd) of 0.346 nM, the koff turned out to be 0.00115 s⁻¹ and the kon turned out to be 3.31e+06 M⁻¹ s⁻¹.

B5: 107_A08 scFv (6xHis/tri-Flag tags) (scFv)
scFv: B2 scFv with Y105W, D108V, V109E
notes: as for B4
In experiment [5], B5 came in with a Kd of 0.274 nM, a koff of 0.00691 s⁻¹ and a kon of 2.52e+07 M⁻¹ s⁻¹.

B6: 110_A01 scFv (6xHis/tri-Flag tags) (scFv)
scFv: B2 scFv with Y105W, G106F, M107P, D108Y, V109L
notes: 7A2 derivative, only VH CDR3 changed; also called 110_A1; not shown: 6xHis/tri-FLAG tags of pSANG10-3F
In the case of B6, in experiment [5], binding was put at a Kd of 0.322 nM, the koff is 0.00163 s⁻¹ and the kon was 5.05e+06 M⁻¹ s⁻¹.

B7: 110_A12 scFv (6xHis/tri-Flag tags) (scFv)
scFv: B2 scFv with Y105W, G106F, M107P, D108R, V109E
notes: as for B4
For B7, in experiment [5], binding was put at a Kd of 0.958 nM, the koff was 0.00156 s⁻¹ and the kon was 1.63e+06 M⁻¹ s⁻¹.

B8: 110_A10 scFv (6xHis/tri-Flag tags) (scFv)
scFv: B2 scFv with Y105W, D108Q, V109T
notes: as for B4
In experiment [5], B8 returned a Kd of 0.301 nM, a koff of 0.00273 s⁻¹ and a kon of 9.08e+06 M⁻¹ s⁻¹.

B9: 110_A06 scFv (6xHis/tri-Flag tags) (scFv)
scFv: B2 scFv with Y105W, D108Q, V109L
notes: 7A2 derivative, only VH CDR3 changed; also called 110_A6; not shown: 6xHis/tri-FLAG tags of pSANG10-3F
In experiment [5], B9 had a Kd of 0.121 nM, a koff of 0.00417 s⁻¹ and a kon of 3.45e+07 M⁻¹ s⁻¹.

B10: 111_D06 scFv (6xHis/tri-Flag tags) (scFv)
scFv: B2 scFv with Y105W, D108W, V109Q
notes: as for B4
In the case of B10, in experiment [5], the Kd was 0.183 nM, the koff is 0.00549 s⁻¹ and the association rate constant (kon) worked out at 3.01e+07 M⁻¹ s⁻¹.

B11: 107_A01 scFv (6xHis/tri-Flag tags) (scFv)
scFv: B2 scFv with Y105W, D108V, V109S
notes: as for B4
In experiment [5], B11 gave a Kd of 0.0652 nM, an off-rate (koff) of 0.00321 s⁻¹ and an on-rate constant (kon) of 4.92e+07 M⁻¹ s⁻¹.

B12: 7A2 Fab (His- and FLAG-tagged, hinged format) (Fab, V domains shown)
VH: QMQLVQSGAEVKKPGAPVKVSCKVSGYTFTDYYMHWVQQAPGKGLEWMGLVDPEDGETIYAEKFQGRVTITADTSTDTAYMELSSLRSEDTAVYYCATDATTPYYGMDVWGQGTLVTVSS
VL: DIQMTQSPSSLSASVGDRVTITCQASQDISNYLNWYQQKPGRAPKVLIYDASNLETGVPSRFSGSGSGTEFTLTISNLRPDDFATYYCQQGDSFPLTFGGGTKVEIK
notes: Fab from pBIOCAM7-3F in HEK293 cells, hinged format (Leu-Glu after VH), hexahistidine and tri-FLAG tags at the C-terminus of the heavy chain
For B12, in experiment [6], the “IC50, inhibition of HGF/SF-induced migration of SKOV-3 cells, Assay 1” value (from here on “IC50, inhibition … Assay 1”) came out at 387 nM; the “IC50, inhibition of HGF/SF-induced migration of SKOV-3 cells, Assay 2” value (“IC50, inhibition … Assay 2” for short) turned out to be 493 nM; the “IC50, inhibition of HGF/SF-induced migration of SKOV-3 cells, Assay 3” value (“IC50, inhibition … Assay 3” for short) turned out to be 278 nM; the “Mean IC50, inhibition of HGF/SF-induced migration of SKOV-3 cells” value (“Mean IC50, inhibition” for short) came out at 386 nM. For the same molecule, in experiment [7], the affinity, expressed as Kd, was 77.3 nM; the koff was found to be 0.0882 s⁻¹; the on-rate constant (kon) was 1.14e+06 M⁻¹ s⁻¹.

B13: 107_A01 Fab (His/tri-FLAG tagged, hinged) (Fab, V domains shown)
VH: B12 VH with Y105W, D108V, V109S
VL: B12 VL
notes: Fab from pBIOCAM7-3F, hinged, hexahistidine and tri-FLAG tags on the heavy chain
Turning to B13, in experiment [6], the “IC50, inhibition … Assay 1” value worked out at 9.7 nM; the “IC50, inhibition … Assay 3” value is 11.4 nM; the “Mean IC50, inhibition” value turned out to be 10.6 nM. Besides, in experiment [7], binding was characterised by a dissociation constant (Kd) of 1.43 nM, the koff stood at 0.00123 s⁻¹ and the kon came out at 863000 M⁻¹ s⁻¹.

B14: 110_A06 Fab (His/tri-FLAG tagged, hinged) (Fab, V domains shown)
VH: B12 VH with Y105W, D108Q, V109L
VL: B12 VL
notes: as for B13
In experiment [7], B14 yielded a dissociation constant (Kd) of 1.9 nM, a koff of 0.00128 s⁻¹ and a kon of 677000 M⁻¹ s⁻¹.

B15: 110_A12 Fab (His/tri-FLAG tagged, hinged) (Fab, V domains shown)
VH: B12 VH with Y105W, G106F, M107P, D108R, V109E
VL: B12 VL
notes: as for B13
Turning to B15, in experiment [7], the dissociation constant Kd was 2.79 nM, the koff worked out at 0.00161 s⁻¹ and the kon worked out at 577000 M⁻¹ s⁻¹.

B16: 110_A10 Fab (His/tri-FLAG tagged, hinged) (Fab, V domains shown)
VH: B12 VH with Y105W, D108Q, V109T
VL: B12 VL
notes: as for B13
In experiment [7], B16 gave a Kd of 2.23 nM, a koff of 0.00168 s⁻¹ and a kon of 756000 M⁻¹ s⁻¹.

B17: 107_A07 Fab (His/tri-FLAG tagged, hinged) (Fab, V domains shown)
VH: B12 VH with Y105W, D108M, V109W
VL: B12 VL
notes: Fab from pBIOCAM7-3F in HEK293 cells, hinged format (Leu-Glu after VH), hexahistidine and tri-FLAG tags on the heavy chain
For the molecule B17, in experiment [6], the “IC50, inhibition … Assay 1” value was determined as 9.7 nM; the “IC50, inhibition … Assay 2” value is 9.2 nM; the “IC50, inhibition … Assay 3” value is 3.1 nM; the “Mean IC50, inhibition” value was determined as 7.4 nM. In experiment [7], this molecule showed a Kd of 1.23 nM, an off-rate constant (koff) of 0.00116 s⁻¹ and a kon of 949000 M⁻¹ s⁻¹.

B18: 107_A08 Fab (His/tri-FLAG tagged, hinged) (Fab, V domains shown)
VH: B12 VH with Y105W, D108V, V109E
VL: B12 VL
notes: as for B13
Take B18: in experiment [6], the “IC50, inhibition … Assay 1” value turned out to be 10.5 nM and the “Mean IC50, inhibition” value stood at 10.5 nM. Besides, in experiment [7], the Kd amounted to 2.29 nM, the koff worked out at 0.00192 s⁻¹ and the kon is 838000 M⁻¹ s⁻¹.

B19: 111_D06 Fab (His/tri-FLAG tagged, hinged) (Fab, V domains shown)
VH: B12 VH with Y105W, D108W, V109Q
VL: B12 VL
notes: as for B13
In the case of B19, in experiment [7], binding was characterised by a dissociation constant (Kd) of 2.29 nM, the koff was 0.00197 s⁻¹ and the association rate constant (kon) worked out at 860000 M⁻¹ s⁻¹.

B20: 110_A01 Fab (His/tri-FLAG tagged, hinged) (Fab, V domains shown)
VH: B12 VH with Y105W, G106F, M107P, D108Y, V109L
VL: B12 VL
notes: as for B13
For B20, in experiment [6], the “IC50, inhibition … Assay 1” value is 9.6 nM; the “IC50, inhibition … Assay 2” value stood at 27 nM; the “IC50, inhibition … Assay 3” value came to 2.6 nM; the “Mean IC50, inhibition” value was determined as 13.1 nM. Further, in experiment [7], the equilibrium dissociation constant (Kd) was 1.23 nM, the koff stood at 0.00137 s⁻¹ and the kon stood at 1.12e+06 M⁻¹ s⁻¹.

Broadly, the Kd is the equilibrium constant for the complex coming apart. By koff is commonly meant the rate constant with which the complex falls apart. The term kon denotes the rate constant with which the complex forms.
